Measured values reported in the supplement of paper PMC10567573.
± gives the standard deviation.

Assay: protein stability index of a GFP-peptide fusion (GPS, HEK-293T) (PSI 1-6); higher = more stable
Settings: c terminus: a fixed tail appended
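Also: 24-mer peptide tiles fused after GFP, lentivirally expressed, FACS-sorted into six equal bins by GFP/DsRed ratio, decoded by Illumina sequencing, PSI is the read-weighted mean bin number.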

Sequence	protein stability index (treatment: DMSO)	protein stability index (treatment: MLN4924 1 uM, 8 h)
AQRRRMDEISDHAKVLTLSDDLER [EIF5]	4.98 ± 0.26	5.04 ± 0.22
PLSLVKRTDLKDLIIFDKQSSQRM [CEP70]	2.97 ± 0.51	3.18 ± 0.44
QAQMIHPKPADFRNPGPGRHRLIT [INTS4]	3.94 ± 0.26	3.92 ± 0.24
TVSSPIPYTPSPSSSRPISPGLSY [CCDC6]	3.58 ± 0.1	3.61 ± 0.45
VHVFGDELSLVTLFRCIQNMPETL [TNFSF13B]	2.5 ± 0.31	2.58 ± 0.58
VEGFRITLVDESDLYNWEVAIFGP [UBE2R2]	2.84 ± 0.79	2.52 ± 0.68
QHYQQYMQQLYQVQLAQQQAALQK [ACBD3]	2.23 ± 0.23	2.21 ± 0.23
VVRLLLEHYRVQTQQTGTVRFDGY [FEM1B]	2.62 ± 0.57	2.63 ± 0.58
YKVSAASSFFFSGVFVGVISFGQL [SLC22A15]	3.24 ± 0.1	3.25 ± 1.5
PSEPSAPLPAGVPPLEDFEVLDGV [FKBP8]	5.49 ± 0.18	5.53 ± 0.11
HNTTEAPGPHSAKQDSYEQGDSSQ [ZC2HC1C]	5.45 ± 0.29	5.46 ± 0.32
LTPSSKEMMSQALKATFSGFTKEQ [ETS1]	3.87 ± 0.24	3.74 ± 0.19
LLVYDITNRWSFDGIDRWIKEIDE [RAB40C]	2.05 ± 0.22	2.18 ± 0.45
RPVAPRRPRDAVGQRGAQGAGRRR [SMAD6]	5.27 ± 0.23	5.43 ± 0.14
PLMGETQERERVLTHFSRRYCQCN [PSD2]	3.13 ± 0.38	3.62 ± 0.25
NKKHIHSRSTLECAYRTHLVAGIG [SMG5]	2.37 ± 0.29	2.39 ± 0.19

Sequence	protein stability index (treatment: DMSO)	protein stability index (treatment: MLN4924 1 uM, 8 h)
RLATVHMSRMINKYKRRRFQKTKN [CLPTM1]	3.16 ± 0.36	3.54 ± 0.49
FTDFNATSALFWEQHDLVYGDWTS [CLPTM1]	2.29 ± 0.67	2.53 ± 0.27
QKKIESYLHNHFIGEGMTKYDYLM [TENT5D]	2.13 ± 0.45	2.18 ± 0.27
TSVEEESFGPQPISRLEQCGINAN [RAD51]	4.63 ± 0.39	4.63 ± 0.18
LPERRGTCADRDNLTRRFSDLGFE [CASP6]	3.16 ± 0.21	3.09 ± 0.086
PVKSYDYLLKFLLVGDSDVGKGEI [RAB40C]	2.06 ± 0.19	2 ± 0.24
VCLMGHERRQTLNLISLLALRVLA [TENT5C]	2.72 ± 0.56	2.5 ± 0.37
AEPGALGEPGAAAPAMYDDESAID [CEBPD]	5.6 ± 0.57	5.77 ± 0.21
LLNSPPSFVCWSRGFMEMNGRGEL [AUP1]	2.1 ± 0.52	2.07 ± 0.46
IVMCVQIKCFHEIITIGYNVYHSY [CDS2]	3.32 ± 0.42	3.36 ± 0.66
SRCRKLVEYFQQSAVAMYMLYEKQ [ZBED1]	2.44 ± 0.65	2.13 ± 0.22
AFAERYAPDKTSTVLTRHSQPATP [PDLIM7]	4 ± 0.3	3.82 ± 0.18
LDRLKVLMQVHASRSNNMGIVGGF [SLC25A25]	2.25 ± 0.7	2.1 ± 0.36
GRSRLYHDGKNQPGVAYPAFLGPD [SPSB4]	3.84 ± 0.23	3.78 ± 0.19
LPATLVMTVPATAIYFTAYDQLKA [SLC25A39]	3.02 ± 0.33	3 ± 0.51
GYLDYRKKAIKDLGISPSTCSFNP [GLT8D2]	2.85 ± 0.22	2.89 ± 0.34
